Test results taken from the nanobody polyreactivity screen of Harvey et al. (2022).

Assay: yeast display, Sf9 membrane polyspecificity reagent, FACS + sequencing; frameworks hold sequencing errors
How it was run: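 Genes from sorted yeast were amplified by colony PCR, read by MiSeq 2 × 250 sequencing and filtered on CDR length. These cells carried a synthetic nanobody library in Saccharomyces cerevisiae BJ5465 and were sorted by FACS into low and high (top ~1%) gates on anti-HA and streptavidin fluorescence. Polyreactivity is labelled according to the gate of origin.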

Row | Sequence | polyreactivity (PSR sort gate)
1 | QVQLVESGGGLVQAGGSLRLSCAASGRTFYDYAMGWYRQAHGKERELVAAIRLSGASTYYADSVKGRFTISRDNAKNTVYLQMNSLKPEDTAVYYCAARYGGRVAYRGYSYYYWGQGTQVTVSS | high polyreactivity
2 | QVQLVESGGGLVQAGGSLRLSCAASGSIFGGYAMGWYRQAPGKERELVAAITSGGGSTYYADSVKGRFTISRDNAKNTVYLQMNSLKPEDTAVYYCAALQSHGVDYDYWGQGTQVTVSS | low polyreactivity
3 | QGQLVESGGGLVQAGGSLRLSCAASGRTFNYYAMGWYREAPGKEWELGAAITNRGGSTYYADSVKGRFTISRDNAKNTVYLQMNSLKPEDTAVYYSAARGKYPSASGYTYSYGYWGQGTQVTVSS | high polyreactivity
4 | QVQLLESGVGLVQAGGTLRLSCAASGRTFYRNAMGWYRQATGKEREMVAAISQSGGSTYYADSVKGRFTISRDNAKNTVYLQMNSLKPEDTAVYYCAAGNSRRVGMDYWGQGTQVTVSS | high polyreactivity
5 | QVQLVESGGGLVQAGGSLRLSCAPSGRIFGVYAMGWYRQAPGKERELVATIRSSGTRTNYADSVKGRFTISRDNAKNTVYLQMNSLKPEDTAVYYCAAGGRPYKLDFTRSDYWGQGTQVTVSS | low polyreactivity
6 | QVQLVESGGGLVQAGGSLRLSCAASGTTFAKNAMGWYRQAPGKERELVAAISWSGGSTYYADSVKGRFTISRDNAKNSVYLQMNSLKPVDTAVYYCAADSPRYGGYGYWGQGTQVTVSS | low polyreactivity
7 | QVQLQESVGGLVQAGGTQRLRCAASGNIFPTDRMGWYRQAPGKELEFVATISHGGSTNYADSVKGRFTISRDNAKNTVYLQMNSLKPEDTAVYYCAVWSLGRWRHYYWGQGTQVTVSS | low polyreactivity
8 | QVQLVESGGGLVQAGGSLGLSCAASGRIFGVYAMGWYRQAPGTERELVAAIWSGGSTYYADSVKGRFTISRDNAKNTVYLQMNSLKPEDTAVYYCAADDAYSHRSLYSHNDYWGQGTQVTVSS | low polyreactivity
9 | QVQLVETAAGLVQAGGSLRLSCAASGSIYYSYAMGGYRQAPGKERELVAAITDSGDSTYYADSVKGRFTISRDNAKNTVYLQMNSLKPEDTAVYYCAAGFYPYYYWGLGTQVTVSS | low polyreactivity
10 | QVQLVESGGGLVQEGGSVRFSCAASGSISKPNARGWYRQAAGKERELVASITRGGIPNYADSVKGRVTISRDNAKNTVYLQMNSLKPEDTAVYDCAAFYAYSKYSYNIRFYYWGQGTQVTVAS | high polyreactivity
11 | QVQLVESGGGLVQAGGSLRLSCAASGYIFVSYDMGWYRQAPGKERELVAAISWRGGSTYYADSVKGRFTISRDNAMNTVYLQMNSLKPEDTAVYYCAVDDWLDWLFADFGYWGQGTQVTVSS | low polyreactivity
12 | QVQLVESGGGLVQAGGSLRLSCAAYGFTFSRKAMGWYRPAPGKERELVAAISIRGGSTYYADSVKGRFTISRDNAKITVYLQMNSLKPEDTAVYYCAALYRPTDYDYWGQGTQVTVSS | high polyreactivity
13 | QVQLVESGGGLLQAGGSLRLSCAASGLIFANYAMGWYRQAPGKERELVAAITWSGGTTYYADSVKGRFTISRDNAKNTVYLQMNSLKPEDTAVYYCAAEVPYYQAAEYDYWGQGTQVTVSS | low polyreactivity
14 | QVQLVESGGGLVQAGGSLRLICAASGRTFSVYAMGWYRQAPGKERELVAAISWNGGNTYYADSVKGRFTISRDNAKNTVYLQMNSLKPEDTAVYYCAAERFLARRYYYWGQGTQVTVSS | low polyreactivity
15 | QVQLVESGGGLVQAGGSLRLSCAASGRIFRPNAMGWNRQAPGKVRELVAAISSGGSTYYADSVKGRFTISRDNAKNTVYLQMNSLKPEDTAVYYCAARSRGYDIRYGYWGQGTQVTVSS | high polyreactivity
16 | QVQLVESGGGLVQAGGSLRLSCAASGSTFLTNTMGWYRQAPGKERELVAIISRSSGTTYYSDSVKGRFTISRDNAKNTVYLQMNSLKPEDTAVYYCAKRYRRAYPYSKNDYWGQGTQVTVSS | high polyreactivity
17 | QVQLVESGGGLVQAGGSLRLSCAASGSNFGSNAMGWYRQAPGKERELVATISGRGGSTYYADSVKGRFTISRDNAKNTVYLQMNSLKPEDTAVYYCAKDRRTWRYGQVFSPYYYWGQGTQVTVSS | low polyreactivity
18 | QVQLVESGGGLVQAGGSLRLICAASGRIFWQYAMGWYRQAPGKERELVAAISRSGGSTYYADSVKGRFTISRDNAKNTVYLQMNSLKPEDTAVYYCAARKASGVPGSAGRPEYYYWGQGTQVTVSS | high polyreactivity
19 | QVQLVESGGGLVQAGGSLRLSFAASGSTFTPNVMGWYRQAPGKERELVAAINSSGGSTFYADSVKGRFTISRDNANNTVYLQMNSLKPEDTAVYYCAASWHTPTVYDEYYYWGQGTQVNVSS | low polyreactivity
20 | QVQLVESGGCLVQAGGSLRLSCAASGLTFSRYAMGWYRQAPGKERELVASSSQGGGSTYYADSVKGRFTISRDNAKITVYFQMNSLIPEDTAVYYCAASWYYSLQRYGYWGQGTQETVSS | high polyreactivity
21 | QVQLVESGGGLVQAGGSLRLSCAASGFTFRRNAMGWYRQAPGKEWEFVAAITGRGTGTYYADSVKGRFTISRDNAKNTVYLQMYILKPEDTAGYYCNDDPVRYLFNRYDYWGQGTQVTVSS | high polyreactivity
22 | QVQLVESGGGLVQAGGSLRLSCAASGRTFVFNDMGWYRQAPGKERELVAAITKNGGSTYYADSVKGRFTISRDTAKNTVYLHMNSLKPEDTAVYYSNASFQYYDYWGQGTQVTVSS | low polyreactivity

Row | Sequence | polyreactivity (PSR sort gate)
23 | QVQLEESGGGLVQAGGSLRLSCAASGYTFYRYTMGWYRQAPGKERELVAAISSRGGSKYYADSVKGRFTISRDNAKNTVYLQMNSLKPEDTAVYFCARKYPRKTLSKGFDYWGQGTQVTVSS | high polyreactivity
24 | QVQLVESGGGLVQAGGSLRLTCAASGSTFYSNAMGWYRQATGKERELVASIRFSGVITTYADSVKGRFTISRDNAKNTVYLQMNSLKPEDTAVYYCAAGYLSTTAYDYWGQGTQVTVSS | low polyreactivity
25 | QVQLVESGGGLVQAGGSLRLSCAASGSIFYRYTMGWYRQAPVTERELVAVISRRGGSTYYADSVKGRFTISRDNEKNTVYLQMNRLKPEDTAVYYCAVPQYRTSVRQGNTLWDDYWGQGTQVTVSS | high polyreactivity
26 | QVQVVESGGGLVQAGGSLRLSCAASGSIIYYYAMGWYRQAPGKERELVARISWNGGSTYYADSVKGRFTISRDNAKNTVYLQMNSLKPEDNAVYYCAARPWHHYYWGQGTQVTVSS | high polyreactivity
27 | QVQLVESAGGLVQAGGSLRLSCAASGFIFFGNAMGWYRQAPGKERALVAVITWSGGSTYADSVKGRFTISRDNAKNPVYLQMNSLKPEDTAVYYSAADQQTWWQYSLINEYDYWGQGTQVTVTS | low polyreactivity
28 | QVQLVESGGGLVQAGGSLRLSSAASGRTFVINAMGWYRQAPGKERELVAAITWGGGSTYYADSVKGRFTISRDNAKNTVYLQMNSLKQEDSAVYYCATSYSVQYGGSGYYWGQGTQVTVSS | low polyreactivity
29 | QVQLVESGGGLVQAGGSLRLSCAASGSTFGYYAMGWYIQAPGKERELVAAISWPGGSTYYADSVKGRFTISRDNAKNTVYLQMNSLKPEYTAVYYCAADTPYWQSSKYDYWGQGTQVSVSS | high polyreactivity
30 | QVQLQESGGGLVQAGGSLRLSCAESGSISRYYDMGWYRQAPGKEREFVAGISGGAITYYADSVKGRFTISRDNAKNTVYLQMNSLKPEDTAVYYCAADTGVYQYHSYWGQGTQVTVSS | low polyreactivity
31 | QVQLVESGGGLVQAGGSLRLSCAASGRTFLENAMGWYRQAPGKERELVAAISWRGGNTHYADSVKGRFTISRDNAKNTVYLQMNSLKPEDTAVYYCNAVNYRNKYDYWGQGTQVTVSS | high polyreactivity
32 | QVQLVESGGGIVQAGRSLRLSCAASGRIFYTNVMGWYRQAPGKERELDAAISSAGTTYYADSVKGRFTISRDNAKNTVYLQMNSLKPEDTAVYYCAADQVAYYGFDYWGQVTQVTVSS | low polyreactivity
33 | QVQLVESGGGLVQAGGRLRLSCAASGRTLATFAMGWSRQAPGKERELVAAITFSGGGSTYYADSVKGRFTISRDNAKNTVYLQMKSLKPEDTADYYCAAGPYYSLFGYGSRDNYRYYYWGQGTQVTVSS | high polyreactivity
34 | QVQLVESGRGLVQAGGSLRLSCAASGSIFGGNGRGWSRQAPGKERELVAAITYSGGSTYYADSVKGRFTISRDNAKNTVYFQMNSLKPEDTAVYYCAKPSRVSIGYDYWGQGTQVTVSS | low polyreactivity
35 | QVQLVESGGGLVQAGGSLRLSCAASGRTFYLNAMGWYRQAPGKERELVAAISRNGGSTYYADSVKGRFTISRDNAKNTVYLQMNSLKPEDTAVYYCNKNWLGWADPSLDKRYDYWGQGTQVTVSS | high polyreactivity
36 | QVQLVESGGGLVQAGGSLRLSCAASGSIFDSYAMGWYRQAPGKERELVAAISWSGGSTYYADSVKGRFTISRDTAKNTVYLQMNSLKPDDTAVYYCNTDWADYYYYTDYDYWGQGTQLTVSS | high polyreactivity
37 | QVQLVESGGGLVQAGGSLRLSCAASGFIFGVNAMVWYRQAPGKERELVAAITRNGGSTYYADSVKGRFTISRDNAKNTVYLQMKSLKPEDTAVYYCAKYVRRAPSTFDVDYWGQGTQVTVSS | high polyreactivity
38 | QVQLVESGGGLVQAGGSLRLSCAASGYIFQRYTMGWYRQAPGKERELVAAITRSGGRTYYADSVKGRFTISRDNAKNTVYLQMNSLKPEDTAVYYCAVDYRTRGDYWGQGTQVTVSS | high polyreactivity
39 | QVQLVDSGGGLVDAGGRLRLSCAASGRTFYAYPMGGYRQAPRTERELVAAITKRDGITFYADSVKGRFTISRDNAKNTVYLQMKSLKPEDTAVDYCDATGYVGGIYGHYPRGYWGQCTQVTVSS | high polyreactivity
40 | QVQLVESGGGLVQAGGSLRLSCAASGRTFRLYAMGWYRQAPGKERELVADITTGGGSTYYADSVKGRFTISRDNAKNTVYLQMNSLKPEDTAVYYCAAEQDTVWFLWIVDYWGQGTQVTVSS | low polyreactivity
41 | QVQLVESGGGLVQARASLRLSCAASGNTIGYYAMGWYRQAHGKERELVAAISKRGGSTRYADSVKGRFTISRDNAKNTVYLQMNSLKPEDTAVYYCNAEGFGSLRYSYCNSFDYWGQGTQVTVSS | high polyreactivity
42 | QVQLVESGGGLVQEGGSLLISCAASGSIVESYAMGWYRQAPGKEREWVAAITIRGASPYYADSVKGRFTISRDNAKNTVYLQMNSLKPEDTAVYYCNARWPGIGPIYDYWGQGTQVTVSS | low polyreactivity
43 | QVQLVESGGGLVQAGGSLRLSCAASGFTFTYNDMGWYRQAPGKEREFVAAISSTGGSTNYADSVKGRFTISRDNAKNTVYLQMNSLKPEDTAGYYCATESYDSYGLYDYWGQGTQVTVSS | low polyreactivity
